Measurements taken from the supplement of paper PMC9233669.
This sample holds only a part of the variants without activity.

Columns and labels:
biotinyl-Phe-oxazolone = test: self-aminoacylation, catalytic enhancement (BFO) (fold over background); higher = more active; k-Seq, kA / k0A0; sequences stand for … in GGGAAUGGAUCCACAUCUACGAAUUC…UUCACUGCAGACUUGACGAAGCUG
Outline: (§1)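 Mutagenized RNA pools with a 21-nt variable region (0.43 μM) were reacted with each biotinyl-aminoacyl-oxazolone at 2–1250 μM for 90 minutes at room temperature, in 50 μL HEPES/NaCl/KCl/MgCl2/CaCl2 buffer containing 5% acetonitrile at pH 6.9–7.0. RNA captured on streptavidin was quantified by triplicate qPCR and by Illumina sequencing. The fraction reacted for each sequence was fit to a pseudo-first-order model with bootstrapping, and catalytic enhancement is the median kA divided by the uncatalyzed rate, taken as the low-activity peak of a bimodal Gaussian fit.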

biotinyl-Ile-oxazolone = test: self-aminoacylation, catalytic enhancement (BIO) (fold over background); higher = more active; k-Seq, kA / k0A0; sequences stand for … in GGGAAUGGAUCCACAUCUACGAAUUC…UUCACUGCAGACUUGACGAAGCUG
Outline: as §1

biotinyl-Met-oxazolone = test: self-aminoacylation, catalytic enhancement (BMO) (fold over background); higher = more active; k-Seq, kA / k0A0; sequences stand for … in GGGAAUGGAUCCACAUCUACGAAUUC…UUCACUGCAGACUUGACGAAGCUG
Outline: as §1

biotinyl-Val-oxazolone = test: self-aminoacylation, catalytic enhancement (BVO) (fold over background); higher = more active; k-Seq, kA / k0A0; sequences stand for … in GGGAAUGGAUCCACAUCUACGAAUUC…UUCACUGCAGACUUGACGAAGCUG
Outline: as §1

biotinyl-Leu-oxazolone = test: self-aminoacylation, catalytic enhancement (BLO) (fold over background); higher = more active; k-Seq, kA / k0A0; sequences stand for … in GGGAAUGGAUCCACAUCUACGAAUUC…UUCACUGCAGACUUGACGAAGCUG
Outline: as §1

biotinyl-Trp-oxazolone = test: self-aminoacylation, catalytic enhancement (BWO) (fold over background); higher = more active; k-Seq, kA / k0A0; sequences stand for … in GGGAAUGGAUCCACAUCUACGAAUUC…UUCACUGCAGACUUGACGAAGCUG
Outline: as §1

Row | Sequence | self-aminoacylation (biotinyl-Phe-oxazolone) | self-aminoacylation (biotinyl-Ile-oxazolone) | self-aminoacylation (biotinyl-Met-oxazolone) | self-aminoacylation (biotinyl-Val-oxazolone) | self-aminoacylation (biotinyl-Leu-oxazolone) | self-aminoacylation (biotinyl-Trp-oxazolone)
1 | AAGUUUCCUAAUAGUCGUAAG [Fam3.1 aminoacylation ribozyme variant] | 2.58 | 1.2 | 1.18 | 1.07 | 1.07 | 1.27
2 | AAGUUUCGUAAUAGUCGCAAG [Fam3.1 aminoacylation ribozyme variant] | 2.26 | 1.63 | 1.27 | 1.33 | 1.78 | 1.61
3 | AAGUUUGAUAACAGUCGCAAG [Fam3.1 aminoacylation ribozyme variant] | 0.983 | 0.929 | 0.877 | 0.798 | 0.548 | 0.569
4 | AAGUUUGAUAAUAGCCGCAAG [Fam3.1 aminoacylation ribozyme variant] | 1.32 | 1.29 | 1.37 | 1.14 | 1.05 | 1.19
5 | AAGUUUGAUAAUAGUAGCAAG [Fam3.1 aminoacylation ribozyme variant] | 0.835 | 0.724 | 0.756 | 0.691 | 0.535 | 0.667
6 | AAGUUUGAUAAUGGUCGCAAG [Fam3.1 aminoacylation ribozyme variant] | 1.47 | 0.891 | 0.785 | 0.644 | 0.895 | 0.581
7 | AAGUUUGAUAUUAGUCGCAAG [Fam3.1 aminoacylation ribozyme variant] | 1.72 | 1.45 | 1.24 | 1.4 | 1.54 | 1.31
8 | AAGUUUGCAAAAAGUCGCAAG [Fam3.1 aminoacylation ribozyme variant] | 1.72 | 0.902 | 1.07 | 0.733 | 0.938 | 0.831
9 | AAGUUUGCAAAUACUCGCAAG [Fam3.1 aminoacylation ribozyme variant] | 2.14 | 0.898 | 0.701 | 0.798 | 0.897 | 0.774
10 | AAGUUUGCAAAUCGUCGCAAG [Fam3.1 aminoacylation ribozyme variant] | 0.933 | 1.09 | 0.985 | 0.93 | 1.18 | 1.21
11 | AAGUUUGCAAGUAGUCGCAAG [Fam3.1 aminoacylation ribozyme variant] | 1.14 | 0.95 | 1.06 | 0.914 | 0.731 | 1.06
12 | AAGUUUGCAUAUAGUCGCAAG [Fam3.1 aminoacylation ribozyme variant] | 0.843 | 0.762 | 0.636 | 0.961 | 0.744 | 0.826
13 | AAGUUUGCCAAUAGUCACAAG [Fam3.1 aminoacylation ribozyme variant] | 1.1 | 1.55 | 1.56 | 1.23 | 1.07 | 1.04
14 | AAGUUUGCCAAUAGUCCCAAG [Fam3.1 aminoacylation ribozyme variant] | 0.931 | 1.21 | 1.1 | 1.04 | 0.831 | 1.27
15 | AAGUUUGCGAAAAGUCGCAAG [Fam3.1 aminoacylation ribozyme variant] | 2.82 | 1.46 | 1.8 | 1.43 | 1.8 | 1.3
16 | AAGUUUGCGAAUAGUCACAAG [Fam3.1 aminoacylation ribozyme variant] | 1.66 | 1.17 | 0.933 | 0.962 | 0.774 | 0.863
17 | AAGUUUGCGAAUAGUCGCAAC [Fam3.1 aminoacylation ribozyme variant] | 7.2 | 1.66 | 1.33 | 1.4 | 1.32 | 1.46
18 | AAGUUUGCGAAUAGUCGCAGG [Fam3.1 aminoacylation ribozyme variant] | 4.04 | 1.7 | 1.79 | 1.59 | 1.89 | 2.44
19 | AAGUUUGCUAAAAGUCGCUAG [Fam3.1 aminoacylation ribozyme variant] | 1.38 | 0.911 | 0.781 | 0.803 | 0.944 | 0.783
20 | AAGUUUGCUAAAAGUCUCAAG [Fam3.1 aminoacylation ribozyme variant] | 4.24 | 1.11 | 1.24 | 0.996 | 0.875 | 1.45
21 | AAGUUUGCUAAACGUCGCAAG [Fam3.1 aminoacylation ribozyme variant] | 0.887 | 0.739 | 0.608 | 0.542 | 0.537 | 0.603
22 | AAGUUUGCUAACAAUCGCAAG [Fam3.1 aminoacylation ribozyme variant] | 1.03 | 0.619 | 0.63 | 0.599 | 0.591 | 0.717

Row | Sequence | self-aminoacylation (biotinyl-Phe-oxazolone) | self-aminoacylation (biotinyl-Ile-oxazolone) | self-aminoacylation (biotinyl-Met-oxazolone) | self-aminoacylation (biotinyl-Val-oxazolone) | self-aminoacylation (biotinyl-Leu-oxazolone) | self-aminoacylation (biotinyl-Trp-oxazolone)
23 | AAGUUUGCUAACAGUCGCAAA [Fam3.1 aminoacylation ribozyme variant] | 2.28 | 1.43 | 1.06 | 0.995 | 1.23 | 1.58
24 | AAGUUUGCUAACUGUCGCAAG [Fam3.1 aminoacylation ribozyme variant] | 0.773 | 0.784 | 1.01 | 0.79 | 1 | 0.984
25 | AAGUUUGCUAAGAGACGCAAG [Fam3.1 aminoacylation ribozyme variant] | 1.28 | 0.661 | 0.544 | 0.76 | 0.967 | 0.74
26 | AAGUUUGCUAAGAGUCGCAAG [Fam3.1 aminoacylation ribozyme variant] | 3.23 | 0.748 | 0.755 | 0.741 | 0.661 | 1.39
27 | AAGUUUGCUAAGAGUCGGAAG [Fam3.1 aminoacylation ribozyme variant] | 1.35 | 0.879 | 0.956 | 0.923 | 0.64 | 1.4
28 | AAGUUUGCUAAGAGUUGCAAG [Fam3.1 aminoacylation ribozyme variant] | 0.74 | 0.797 | 0.665 | 0.757 | 0.86 | 0.97
29 | AAGUUUGCUAAGAUUCGCAAG [Fam3.1 aminoacylation ribozyme variant] | 1.13 | 0.986 | 0.647 | 0.867 | 0.86 | 1.04
30 | AAGUUUGCUAAUAAUCGAAAG [Fam3.1 aminoacylation ribozyme variant] | 0.807 | 1.02 | 0.793 | 0.764 | 0.95 | 0.78
31 | AAGUUUGCUAAUAAUCGCAUG [Fam3.1 aminoacylation ribozyme variant] | 1.21 | 0.866 | 1.05 | 0.926 | 0.932 | 1.15
32 | AAGUUUGCUAAUAAUCGGAAG [Fam3.1 aminoacylation ribozyme variant] | 0.788 | 0.961 | 0.973 | 0.923 | 0.877 | 0.66
33 | AAGUUUGCUAAUACACGCAAG [Fam3.1 aminoacylation ribozyme variant] | 1.19 | 0.665 | 0.7 | 0.627 | 0.564 | 0.66
34 | AAGUUUGCUAAUACUCGCUAG [Fam3.1 aminoacylation ribozyme variant] | 0.624 | 0.63 | 0.532 | 0.507 | 0.594 | 0.445
35 | AAGUUUGCUAAUACUGGCAAG [Fam3.1 aminoacylation ribozyme variant] | 0.739 | 0.642 | 0.481 | 0.571 | 0.696 | 0.458
36 | AAGUUUGCUAAUAGACGCGAG [Fam3.1 aminoacylation ribozyme variant] | 0.443 | 0.793 | 0.912 | 0.64 | 0.619 | 0.812
37 | AAGUUUGCUAAUAGACGGAAG [Fam3.1 aminoacylation ribozyme variant] | 0.91 | 0.637 | 0.544 | 0.584 | 0.406 | 0.764
38 | AAGUUUGCUAAUAGCCGCGAG [Fam3.1 aminoacylation ribozyme variant] | 1.6 | 1.05 | 0.916 | 1.63 | 2.04 | 1.01
39 | AAGUUUGCUAAUAGCCGUAAG [Fam3.1 aminoacylation ribozyme variant] | 18.2 | 1.3 | 1.39 | 1.36 | 0.898 | 7.16
40 | AAGUUUGCUAAUAGGCCCAAG [Fam3.1 aminoacylation ribozyme variant] | 0.737 | 1.32 | 0.899 | 1.23 | 0.847 | 1.2
41 | AAGUUUGCUAAUAGGCGCUAG [Fam3.1 aminoacylation ribozyme variant] | 0.86 | 0.648 | 0.723 | 0.722 | 0.647 | 0.561
42 | AAGUUUGCUAAUAGGGGCAAG [Fam3.1 aminoacylation ribozyme variant] | 1.08 | 0.686 | 0.663 | 0.649 | 0.505 | 0.665
43 | AAGUUUGCUAAUAGGUGCAAG [Fam3.1 aminoacylation ribozyme variant] | 0.732 | 0.728 | 0.706 | 0.836 | 0.609 | 0.526
